± gives the standard deviation.
Assay: protein stability index of a GFP-peptide fusion (GPS, HEK-293T) (PSI 1-6); higher = more stable
Details: c terminus: a fixed tail appended
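Note: 24-mer peptide tiles fused after GFP, lentivirally expressed, FACS-sorted into six equal bins by GFP/DsRed ratio, decoded by Illumina sequencing, PSI is the read-weighted mean bin number.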

## SLSSTATVLLVLEDEDPEEMPKSS [PCDHGC5]
treatment: DMSO
  protein stability index: 4.24 ± 0.12
treatment: MLN4924 1 uM, 8 h
  protein stability index: 4.08 ± 0.32

## ENQSPSSSNYFSPRESTDFSSSSQ [ZBTB22]
treatment: DMSO
  protein stability index: 5.12 ± 0.31
treatment: MLN4924 1 uM, 8 h
  protein stability index: 4.96 ± 0.34

## ARYAQQKHRIRRVLIVDWDVHHGQ [HDAC6]
treatment: DMSO
  protein stability index: 2.33 ± 0.19
treatment: MLN4924 1 uM, 8 h
  protein stability index: 2.31 ± 0.42

## GMSLAKELIFSARVLDGKEAKAVG [AUH]
treatment: DMSO
  protein stability index: 3.45 ± 0.13
treatment: MLN4924 1 uM, 8 h
  protein stability index: 3.48 ± 0.17

## KLNLPDYHKIIKNPMDMGTIKKRL [BRD3]
treatment: DMSO
  protein stability index: 2.41 ± 0.17
treatment: MLN4924 1 uM, 8 h
  protein stability index: 2.48 ± 0.42

## APPLPGAESFPGSQVMGSGRGSLS [PLEKHN1]
treatment: DMSO
  protein stability index: 4.82 ± 0.28
treatment: MLN4924 1 uM, 8 h
  protein stability index: 4.61 ± 0.2

## MYHYLQFAYYKLNDVRQAARSAAS [P3H4]
treatment: DMSO
  protein stability index: 2.05 ± 0.42
treatment: MLN4924 1 uM, 8 h
  protein stability index: 2.33 ± 0.37

## DSTLSYTETEATNSLITAPGEFSD [SMAD6]
treatment: DMSO
  protein stability index: 5.34 ± 0.2
treatment: MLN4924 1 uM, 8 h
  protein stability index: 5.39 ± 0.17

## TFNFISSLKAICTEIANCSLKVKF [PLD5]
treatment: DMSO
  protein stability index: 2.68 ± 0.56
treatment: MLN4924 1 uM, 8 h
  protein stability index: 3.29 ± 0.1

## PLVALDTDSDDDFDMSRYSSSGYS [FAM219A]
treatment: DMSO
  protein stability index: 4.59 ± 0.52
treatment: MLN4924 1 uM, 8 h
  protein stability index: 4.76 ± 0.38

## MRLSKTLVDMDMADYSAALDPAYT [HNF4A]
treatment: DMSO
  protein stability index: 2.86 ± 0.28
treatment: MLN4924 1 uM, 8 h
  protein stability index: 3.08 ± 0.25

## DVGENLTVPDEFTVEERQTGMWWR [SLC25A25]
treatment: DMSO
  protein stability index: 4.18 ± 0.14
treatment: MLN4924 1 uM, 8 h
  protein stability index: 4.16 ± 0.28

## EVQAVHKNTTYDLIANIVHDGKPS [USP39]
treatment: DMSO
  protein stability index: 3.69 ± 0.17
treatment: MLN4924 1 uM, 8 h
  protein stability index: 3.87 ± 0.32

## LTNIWMARTCAKQNINAPAPATTS [C22orf31]
treatment: DMSO
  protein stability index: 2.51 ± 0.27
treatment: MLN4924 1 uM, 8 h
  protein stability index: 2.59 ± 0.15

## IPSTPEEVSADDETPNPPQSAQIA [MAGEA10]
treatment: DMSO
  protein stability index: 5.42 ± 0.1
treatment: MLN4924 1 uM, 8 h
  protein stability index: 5.44 ± 0.16

## FCMFYAVLGIPLTLVMFQSLGERM [KCNK9]
treatment: DMSO
  protein stability index: 3.7 ± 0.32
treatment: MLN4924 1 uM, 8 h
  protein stability index: 2.95 ± 0.31

## HKSHRGMTPAEAEMHFLENAKKLS [EPB41L3]
treatment: DMSO
  protein stability index: 4.38 ± 0.21
treatment: MLN4924 1 uM, 8 h
  protein stability index: 4.25 ± 0.47

## APANVAKIQLRLAGQKRKHSEGRV [LOXL2]
treatment: DMSO
  protein stability index: 3.88 ± 0.13
treatment: MLN4924 1 uM, 8 h
  protein stability index: 4.53 ± 0.32

## GVITTTPTPPGQYFYPRGGGSGGG [JUNB]
treatment: DMSO
  protein stability index: 4.14 ± 0.16
treatment: MLN4924 1 uM, 8 h
  protein stability index: 4.26 ± 0.095

## DLLKKAKFHHSDCLSTWLLHFIAT [RHOBTB3]
treatment: DMSO
  protein stability index: 2.37 ± 0.44
treatment: MLN4924 1 uM, 8 h
  protein stability index: 2.34 ± 0.41

## STPQGKGEVVKIPSRVHGSLEPFR [PWWP2B]
treatment: DMSO
  protein stability index: 3.86 ± 0.16
treatment: MLN4924 1 uM, 8 h
  protein stability index: 4.03 ± 0.28

## KMNFSTLRNIQGLFAPLKLQMEFK [POMP]
treatment: DMSO
  protein stability index: 2.2 ± 0.36
treatment: MLN4924 1 uM, 8 h
  protein stability index: 2.02 ± 0.098

## GTIHALIFAWNKWIDIKQFVWYTP [STEAP1]
treatment: DMSO
  protein stability index: 3.28 ± 0.26
treatment: MLN4924 1 uM, 8 h
  protein stability index: 2.18 ± 0.11

## DQEPLLSIDLGTAHSAAVTASGDC [NEK8]
treatment: DMSO
  protein stability index: 5.07 ± 0.32
treatment: MLN4924 1 uM, 8 h
  protein stability index: 5.17 ± 0.26

## LEEENKERAKREMVMYSITVAFWL [MFF]
treatment: DMSO
  protein stability index: 2.29 ± 0.55
treatment: MLN4924 1 uM, 8 h
  protein stability index: 2.82 ± 0.46

## FSFSMKGHEKTAKSKTRSLLKRME [DLC1]
treatment: DMSO
  protein stability index: 2.84 ± 0.24
treatment: MLN4924 1 uM, 8 h
  protein stability index: 3.06 ± 0.23

## VVPGDHLLEPEVADGGGAPPQGGC [KCNA3]
treatment: DMSO
  protein stability index: 5.37 ± 0.14
treatment: MLN4924 1 uM, 8 h
  protein stability index: 5.29 ± 0.12

## DYELLQMLQIVVGVRDSGSPPLHA [PCDHGC5]
treatment: DMSO
  protein stability index: 2.3 ± 0.41
treatment: MLN4924 1 uM, 8 h
  protein stability index: 2.18 ± 0.17

## IFATKPHVLPAVLAEVAPVVTTEH [PYCR3]
treatment: DMSO
  protein stability index: 3.33 ± 0.38
treatment: MLN4924 1 uM, 8 h
  protein stability index: 3.4 ± 0.21

## LGIPKNPWLWSEQQVCQWLLWATN [ETS2]
treatment: DMSO
  protein stability index: 2.29 ± 0.3
treatment: MLN4924 1 uM, 8 h
  protein stability index: 2.33 ± 0.15

## EGVAGKSGLEKEVQRLTSRAARDY [FCHSD1]
treatment: DMSO
  protein stability index: 4.69 ± 0.039
treatment: MLN4924 1 uM, 8 h
  protein stability index: 4.84 ± 0.09

## SDVHPVALNFMKGCLKMNPDDRLT [CDKL4]
treatment: DMSO
  protein stability index: 3.55 ± 0.27
treatment: MLN4924 1 uM, 8 h
  protein stability index: 3.49 ± 0.18

## ISVQNYKQVCKIAALHGLEETKKL [KLHL14]
treatment: DMSO
  protein stability index: 2.29 ± 0.24
treatment: MLN4924 1 uM, 8 h
  protein stability index: 2.31 ± 0.3

## FCVALSDYDLVLAEDEEMNRMHES [GNAI1]
treatment: DMSO
  protein stability index: 3.52 ± 0.41
treatment: MLN4924 1 uM, 8 h
  protein stability index: 3.43 ± 0.28

## SFMDGYKQKNAYIGTQGPLENTYR [PTPN9]
treatment: DMSO
  protein stability index: 3.04 ± 0.16
treatment: MLN4924 1 uM, 8 h
  protein stability index: 2.92 ± 0.24

## MVPHNLETTERMKCLYYLYATLDL [PDS5B]
treatment: DMSO
  protein stability index: 2.14 ± 0.29
treatment: MLN4924 1 uM, 8 h
  protein stability index: 2.16 ± 0.38

## QTQTVAAQAQALAAQAAAAAHAAQ [PI4K2A]
treatment: DMSO
  protein stability index: 4.33 ± 0.22
treatment: MLN4924 1 uM, 8 h
  protein stability index: 4.42 ± 0.19

## LVYLGDLSRYQNELAGVDTELLAE [SMG5]
treatment: DMSO
  protein stability index: 2.51 ± 0.2
treatment: MLN4924 1 uM, 8 h
  protein stability index: 2.74 ± 0.11

## AGIELIIEDDIRPEKQKRKPGLRR [MYBL2]
treatment: DMSO
  protein stability index: 3.63 ± 0.24
treatment: MLN4924 1 uM, 8 h
  protein stability index: 4.26 ± 0.43

## PADSFESPLTLAACGGHVELAALL [ANKRD17]
treatment: DMSO
  protein stability index: 2.87 ± 0.32
treatment: MLN4924 1 uM, 8 h
  protein stability index: 3.14 ± 0.28

## FSHSGRYIMTRDYLTVKVWDLNME [PPP2R2B]
treatment: DMSO
  protein stability index: 2.63 ± 0.49
treatment: MLN4924 1 uM, 8 h
  protein stability index: 2.3 ± 0.38

## AGGAPGSPIPSPPGPGDDLCSDLE [HES6]
treatment: DMSO
  protein stability index: 5.51 ± 0.45
treatment: MLN4924 1 uM, 8 h
  protein stability index: 5.34 ± 0.4

## LPGNHSTSQEIFRQRFRHLRYQET [ZNF232]
treatment: DMSO
  protein stability index: 3.13 ± 0.17
treatment: MLN4924 1 uM, 8 h
  protein stability index: 3.39 ± 0.19

## LLEQSLEEFAQAESKDQGKTLALA [ALDH8A1]
treatment: DMSO
  protein stability index: 4.68 ± 0.33
treatment: MLN4924 1 uM, 8 h
  protein stability index: 4.68 ± 0.14

## LIDQRYFQVLCSINSIIHNPRAPV [CEP70]
treatment: MLN4924 1 uM, 8 h
  protein stability index: 2.07 ± 0.12
